In US20250270343A1 (Alector, published 2025):
Where a chain is given by its changes, count along the chain named.

T1: mouse GPNMB endogenously expressed on B16F10 cells (mouse, UniProt Q99P91 23-574)
T1 construct: whole, on cells; also called moGPNMB
T1 sequence (looked up): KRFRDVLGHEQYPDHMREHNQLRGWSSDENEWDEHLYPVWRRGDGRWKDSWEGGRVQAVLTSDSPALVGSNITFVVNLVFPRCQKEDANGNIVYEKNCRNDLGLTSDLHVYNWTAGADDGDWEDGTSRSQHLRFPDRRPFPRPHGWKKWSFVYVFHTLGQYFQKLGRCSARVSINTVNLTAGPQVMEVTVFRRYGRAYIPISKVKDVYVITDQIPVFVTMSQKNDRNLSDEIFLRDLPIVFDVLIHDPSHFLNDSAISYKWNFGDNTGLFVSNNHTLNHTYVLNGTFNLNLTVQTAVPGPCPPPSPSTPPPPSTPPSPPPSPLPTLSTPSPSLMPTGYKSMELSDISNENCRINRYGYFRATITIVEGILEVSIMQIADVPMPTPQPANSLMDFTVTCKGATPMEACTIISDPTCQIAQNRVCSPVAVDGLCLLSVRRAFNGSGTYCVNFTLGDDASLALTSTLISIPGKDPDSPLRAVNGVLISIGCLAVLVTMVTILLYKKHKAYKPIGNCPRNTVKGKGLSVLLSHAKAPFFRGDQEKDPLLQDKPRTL

T2: soluble cynomolgus GPNMB (recombinant extracellular domain) (cynomolgus, UniProt Q14956 23-499 (human entry), limits assumed)
T2 chain: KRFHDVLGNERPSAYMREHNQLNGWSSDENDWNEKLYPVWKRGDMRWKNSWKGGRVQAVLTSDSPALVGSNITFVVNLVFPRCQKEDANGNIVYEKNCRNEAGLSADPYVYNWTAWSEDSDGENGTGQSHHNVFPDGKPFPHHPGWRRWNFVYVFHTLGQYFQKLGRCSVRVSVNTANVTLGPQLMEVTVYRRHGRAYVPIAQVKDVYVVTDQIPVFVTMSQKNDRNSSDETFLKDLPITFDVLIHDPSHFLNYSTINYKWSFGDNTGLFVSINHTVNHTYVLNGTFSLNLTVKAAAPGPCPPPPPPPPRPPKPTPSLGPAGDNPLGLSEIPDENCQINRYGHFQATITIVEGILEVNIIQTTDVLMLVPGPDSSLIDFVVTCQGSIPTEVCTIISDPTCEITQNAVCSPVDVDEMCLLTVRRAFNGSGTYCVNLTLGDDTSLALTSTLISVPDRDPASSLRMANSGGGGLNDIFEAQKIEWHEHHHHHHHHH

T3: soluble human GPNMB (recombinant extracellular domain) (human, UniProt Q14956 23-498)
T3 construct: also called huGPNMB; recombinant human GPNMB extracellular domain; not shown: C-terminal polyhistidine or Avi-His tag
T3 sequence: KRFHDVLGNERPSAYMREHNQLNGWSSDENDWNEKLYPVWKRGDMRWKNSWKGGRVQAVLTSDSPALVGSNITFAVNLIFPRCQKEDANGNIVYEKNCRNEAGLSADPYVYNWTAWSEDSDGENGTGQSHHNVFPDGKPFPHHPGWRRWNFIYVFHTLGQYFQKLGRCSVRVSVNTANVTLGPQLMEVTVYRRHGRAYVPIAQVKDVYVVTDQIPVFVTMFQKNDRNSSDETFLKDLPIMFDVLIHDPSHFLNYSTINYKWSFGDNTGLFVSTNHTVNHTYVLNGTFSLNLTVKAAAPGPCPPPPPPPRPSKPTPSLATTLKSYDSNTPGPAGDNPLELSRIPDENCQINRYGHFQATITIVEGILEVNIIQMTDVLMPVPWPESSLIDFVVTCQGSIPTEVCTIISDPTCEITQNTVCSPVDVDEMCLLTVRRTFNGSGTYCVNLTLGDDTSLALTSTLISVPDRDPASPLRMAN

B1: anti-GPNMB antibody GPN-37 (antibody, human IgG1, V domains shown)
VH: EVQLVESGGGLVQPGRSLKLSCAASGFTFSSKSGMAWVRQAPTKGLEWVASISNGGGDTYYRDSVKGRFTISRDNAKNTQYLQMDSLRPEDTATYYCARHRDYGYDAYFDYWGQGVMVTVSS
VL: DIQMTQSPASLSASLGETVTIECLASEDIYSSLAWYQQKPGKSPQLLIYDASSLQDGVPSRFSGSESGTQYSLEINSLQSEDAATYFCQQHHDYPYTFGAGTKLELK
notes: chimeric
B2: anti-GPNMB antibody GPN-24 (antibody, human IgG1, V domains shown)
VH: QVQLQQPGAELVKPGASVKMSCKASGYTFTSYWITWVKQRPGQGLEWIGDIHPGSGRSNYNEKFKNKATLNVDTSSSTVYMQLSSLTSEDSAVYYCARDYLFAYWGQGTLVTVSA
VL: DIQMTQSPSSLSASLGERVSLTCRASQEISGYLSWLQQKPDGTIKRLIYSTSTLDSGVPKRFSGSRSGSDYSLTISSLESEDFADYYCLQYTSSPPTFGGGTKLEIK
notes: chimeric
B3: anti-GPNMB antibody GPN-01 (antibody, human IgG1, V domains shown)
VH: QVQLQQSGAELAKPGASVKLSCKASGYNFTNYCIHWVKQRPGQGLEWIGYINPSTGYTEYNQKFKDKATLTADKSSTTAYMQLSSLTSEDSAVYYCARGRYDEFTYWGQGTLVTVSA
VL: DIVLTQSPASLAVSLGQRATISCRASKSVSTSTYSYMHWYQQKPGQPPKLLIYLASNLESGVPARFSGSGSGTDFTLNIHPVEEEDAATYYCQHSRELPPTFGGGTKLEIK
notes: chimeric
B4: anti-GPNMB antibody GPN-52 (antibody, human IgG1, V domains shown)
VH: DVQLQESGPGLVKPSQTVFLTCTVTGISITTGNYRWSWIRQFPGNKLEWIGYIYYSGTITYNPSLTSRITITRDTPKNEFFLEMNSLTAEDTATYYCARDLTHWYFDVWGTGTTVTVSS
VL: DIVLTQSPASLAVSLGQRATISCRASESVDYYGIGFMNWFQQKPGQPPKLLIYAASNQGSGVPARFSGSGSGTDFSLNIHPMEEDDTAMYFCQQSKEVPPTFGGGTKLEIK
notes: chimeric
B5: anti-GPNMB antibody GPN-61 (antibody, human IgG1, V domains shown)
VH: B4 VH with I69T, E79Q, N85S, Y96F, T102R
VL: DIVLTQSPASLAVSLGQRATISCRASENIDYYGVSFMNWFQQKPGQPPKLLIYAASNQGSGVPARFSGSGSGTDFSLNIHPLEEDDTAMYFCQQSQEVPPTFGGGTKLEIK
notes: chimeric
B6: anti-GPNMB antibody GPN-48 (antibody, human IgG1, V domains shown)
VH: QVQLQQSGPELVKPGASVKLSCRASGYGFSSFWMNWVKQRPGKGLEWIGRIYPGKGDTLYNGKFKDKATLTADESSSTAYMQLSSLTSEDSAVYFCARSIYYYDYWYFDVWDTGTTVTVSS
VL: DIVMTQSHKFMSTSVGDRVNITCKASQDVNSAIAWYQQKPGQSPKLLIYSASYRFIGVPDRFTGSGSGTGFTFTISSVQAEDLAVYYCQQHYTTPLTFGAGTKLELK
notes: chimeric
B7: anti-GPNMB antibody GPN-38 (antibody, human IgG1, V domains shown)
VH: QVQLQQPGAELVRPGTSVRLSCKASGYTFTSYWIHWVKQRPGRGLEWIGVIDPSDSYTNYNQQFNVKATLTVDTSSSAAYMQLSSLTSEDSAVYYCARGLITAVNWYFDVWGTGTTVTVSS
VL: DIQMTQSPASLSTSVGEIVTITCRASENIYSYLTWYQQKQGKSPQLLVYNAKTLAEGVPSRFSGSGSGTQFSLKINSLQPEDFGTYYCQHHYGTPLTFGSGTKLEIK
notes: chimeric
B8: anti-GPNMB antibody GPN-35 (antibody, human IgG1, V domains shown)
VH: EVQLVESGGGSVRPGRSLKLSCAAAGFTFSDYYMTWVRQAPTKGLEWVASINHDGGGTYYRDSVKGRFTISRDNARSSLYLQMDSLRSEDTGTYYCTTRAGWHWGQGVMVTVSS
VL: DIQMTQSPASLSASLGETVSIECLASEDIYNYLTWYQQKPGKSPQVLIYSASGLQDGVPSRFSGSGSGRQYSLKINGLESEDAATYFCLQDSEYPLTFGSGTKLEIK
notes: chimeric
B9: anti-GPNMB antibody GPN-43 (antibody, human IgG1, V domains shown)
VH: EVQLQQSGPELVKPGASVKISCKASGYTFTDYYMNWVRQSHGKSLEWIGDINPYHGGSTYNQKIKVKATLTVDKSSSTAYMELRSLTSEDSAVYYCARNWPYFDYWGQGTTLTVSS
VL: DIQMTQSPASLSASVGETVTITCRASENIYSFLVWYQQKQGKSPQLLVYNAKTLAEGVPSRFSGSGSGTQFSLKISSLQPEDFGSYYCQHHFGTPPYTFGGGTKLEIK
notes: chimeric
B10: anti-GPNMB antibody GPN-41 (antibody, human IgG1, V domains shown)
VH: QLQLQQSGTEVVKPGASVKIPCKASGYAFSSYWMNWVKQRPGKGLEWIGQIYPGDGDTNDNGKFEGKATLTVDKSSNTAYIQLSSLTSEDSAVYFCARSPLHLRGSMDYWGQGTSVTVSS
VL: SIVMTQTPKFLLVSAGDRVTITCKASQSVSNDVAWFQQKPGQSPELLIYSASNRYTGVPDRFTASGYGTDFTFTISAVQAEDLAVYFCQQNYYSPFTFGGGTRLEIK
notes: chimeric
B11: anti-GPNMB antibody GPN-65 (antibody, human IgG1, V domains shown)
VH: B10 VH
VL: B10 VL with A64G, A77T
notes: chimeric
B12: anti-GPNMB antibody GPN-42 (antibody, human IgG1, V domains shown)
VH: DVKLVESGEDLVKPGGSLKLSCAASGFTFSSYAMSWVRQTPEKRLEWVAYISSGGDYIYYADTVKGRFTISRDNARNTLYLQMSSLKSEDTAMYYCTRDRYYDYDVRDYYTMDYWGQGTSVTVSS
VL: DVMMTQTPLSLPVSLGDQASISCRSSQSLVHSNGNTYLHWFLQKPGQSPKLLIFRVSNRFSGVPDRFSGRGSGTDFTLKISRVEAEDLGVYFCSQTTHVPRTFGGGTTLEIK
notes: chimeric

Target: T1, mouse GPNMB endogenously expressed on …
Test: FACS on B16F10 mouse melanoma cells (endogenous mouse GPNMB); single antibody concentration (not given); APC anti-human IgG secondary; MFI as fold over background
Method: Recombinant anti-GPNMB antibodies of the present disclosure were examined for their ability to bind human and/or mouse GPNMB expressed on Freestyle293-huGPNMB+ or B16F10 cells, respectively. B16F10 cells are a murine melanoma cell line from a C57BL/6J mouse that endogenously express high levels of mouse GPNMB. The antibodies were also tested for their ability to bind to a human macrophage cell line (U937 cells) engineered to express human GPNMB. Cells were harvested, plated at 100,000 cells/well in a 96-well round bottom plate, and incubated in 100 μl FACS buffer (PBS containing 2% FBS, 2 mM EDTA) containing anti-GPNMB monoclonal antibodies of the present disclosure for 30 minutes on ice. Cells were then washed and incubated in 100 ul FACS buffer containing 1 μg/ml APC-conjugated anti-human IgG secondary antibody for 30 minutes in ice. Cells were washed twice in cold FACS buffer and acquired on a BD FACS Canto. Data analysis and calculation of MFI values was performed with FlowJo (TreeStar) software version 10.0.7. […]

Row | binding result | Binder
1 | no binding | B1
2 | no binding | B2
3 | no binding | B3

Target: T2, soluble cynomolgus GPNMB (recombinant …)
Test: SPR Carterra, Ab immobilized
Method: (§1) Binding kinetics of human anti-GPNMB IgG1 antibodies of the present disclosure to human, cynomolgus, and mouse GPNMB were evaluated using a Carterra LSA instrument (Carterra, Salt Lake City, UT). […] A HC200M sensor chip (Carterra) was activated using the single channel flow cell with a 7-minute injection of a 1:1:1 mixture of 100 mM MES pH 5.5, 100 mM sulfo-NHS, 400 mM EDC (all reconstituted in MES pH 5.5; 100 μl of each mixed in vial immediately before running assay). After switching to the multi-channel array flow cell, the antibodies were injected over the activated chip in a 96-spot array for 15 minutes. The remaining unconjugated active groups on the chip were then blocked by injecting 1M Ethanolamine pH 8.5 (Carterra) for 7 minutes using the single channel flow cell.
(§2) After priming with running buffer (HBS-EP+, Teknova) with 0.5 mg/ml BSA (Sigma), the immobilized anti-GPNMB antibodies were tested for their ability to bind to several forms of recombinant GPNMB extracellular domain, including human, cynomolgus, and mouse orthologs as described above. Estimates of affinity were generated by injecting each analyte over the entire antibody array using the single channel flow cell. GPNMB analytes were diluted to 2.5, 7.4, 22, 67, 200, and 600 nM in running buffer, and injected in serial from lowest to highest concentration without regeneration. Two buffer blanks were run between each series (one species per series). Data were processed and analyzed using Kinetics high-throughput kinetics analysis software (Carterra).

Row | Kd [µM] | koff [s⁻¹] | kon [M⁻¹ s⁻¹] | Binder
4 | 0.0083 | 0.00061 | 77000 | B2
5 | 0.031 | 0.0034 | 110000 | B3
6 | 0.0401 | 0.0036 | 90000 | B4
7 | 0.0479 | 0.0041 | 86000 | B5

Target: T3, soluble human GPNMB (recombinant …)
Test: SPR Carterra, Ab immobilized
Method: as §1, §2

Row | Kd [µM] | koff [s⁻¹] | kon [M⁻¹ s⁻¹] | Binder
8 | 0.001 | 0.00011 | 110000 | B1
9 | 0.0088 | 0.00057 | 69000 | B2
10 | 0.0011 | 0.00037 | 330000 | B6
11 | 0.00492 | 0.00053 | 110000 | B7
12 | 0.0425 | 0.0038 | 91000 | B3
13 | 0.021 | 0.0015 | 71000 | B8
14 | 0.0379 | 0.0032 | 86000 | B4
15 | 0.0501 | 0.0035 | 71000 | B5
16 | 0.111 | 0.002 | 18000 | B9
17 | 0.000441 | 8.2e-05 | 200000 | B10
18 | 0.00049 | 0.0001 | 210000 | B11
19 | 0.0061 | 8.3e-05 | 14000 | B12
